Key:
[1] = target: GST-PIF mutant Y979 to Ala
[2] = target: GST-PIF (glutathione-S-transferase fusion of the C-terminal 77 amino acids of PRK2)
[3] = target: GST-PIF mutant F974 to Ala
[4] = target: GST-PIF mutant Asp978 to Ser
[5] = target: GST-PIF mutant Asp978 to Ala
[6] = target: GST-PIF mutant F977 to Ala
D978A-Region B peptide = target: T1, D978A-Region B peptide
T1 chain: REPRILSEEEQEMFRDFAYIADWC

[7] = target: T2, Region B peptide (24 residue synthetic peptide corresponding to Region B of PIF)
T2 chain: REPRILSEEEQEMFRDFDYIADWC

Chain of GST-PIF mutant Y979 to Ala (chain, as listed by the source mutant): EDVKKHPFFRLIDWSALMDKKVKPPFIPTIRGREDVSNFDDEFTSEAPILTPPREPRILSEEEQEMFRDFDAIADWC
Chain of GST-PIF mutant F977 to Ala (chain, as listed by the source mutant): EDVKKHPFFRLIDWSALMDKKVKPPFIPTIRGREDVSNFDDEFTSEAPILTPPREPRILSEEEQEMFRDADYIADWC
Chain of GST-PIF mutant Asp978 to Ser (chain, as listed by the source mutant): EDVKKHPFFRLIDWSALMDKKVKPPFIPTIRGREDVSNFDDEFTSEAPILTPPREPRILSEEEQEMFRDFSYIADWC
Chain of GST-PIF mutant F974 to Ala (chain, as listed by the source mutant): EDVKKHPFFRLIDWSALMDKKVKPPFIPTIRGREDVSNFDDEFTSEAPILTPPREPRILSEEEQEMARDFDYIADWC

B1: endogenous PDK1 of 293 cells (protein)
chain: MARTTSQLYDAVPIQSSVVLCSCPSPSMVRTQTESSTPPGIPGGSRQGPAMDGTAAEPRPGAGSLQHAQPPPQPRKKRPEDFKFGKILGEGSFSTVVLARELATSREYAIKILEKRHIIKENKVPYVTRERDVMSRLDHPFFVKLYFTFQDDEKLYFGLSYAKNGELLKYIRKIGSFDETCTRFYTAEIVSALEYLHGKGIIHRDLKPENILLNEDMHIQITDFGTAKVLSPESKQARANSFVGTAQYVSPELLTEKSACKSSDLWALGCIIYQLVAGLPPFRAGNEYLIFQKIIKLEYDFPEKFFPKARDLVEKLLVLDATKRLGCEEMEGYGPLKAHPFFESVTWENLHQQTPPKLTAYLPAMSEDDEDCYGNYDNLLSQFGCMQVSSSSSSHSLSASDTGLPQRSGSNIEQYIHDLDSNSFELDLQFSEDEKRLLLEKQAGGNPWHQFVENNLILKMGPVDKRKGLFARRRQLLLTEGPHLYYVDPVNKVLKGEIPWSQELRPEAKNFKTFFVHTPNRTYYLMDPSGNAHKWCRKIQEVWRQRYQSHPDAAVQ
[1]
  phosphorylation of PKBα at Ser473 (P-473 immunoblot): prevented the phosphorylation of PKBα at Ser473
[2]
  activation of GST-S473D-PKBα (Thr308 phosphorylation) by PDK1 associated with GST-PIF (0.5 µg): greatly activated a GST-A473D-PKBα mutant
[3]
  phosphorylation of PKBα at Ser473 (P-473 immunoblot): prevented the phosphorylation of PKBα at Ser473
[4]
  phosphorylation of PKBα at Ser473 (P-473 immunoblot): prevented the phosphorylation of PKBα at Ser473
[5]
  phosphorylation of PKBα at Ser473 (P-473 immunoblot): prevented the phosphorylation of PKBα at Ser473
[6]
  phosphorylation of PKBα at Ser473 (P-473 immunoblot): prevented the phosphorylation of PKBα at Ser473

B2: His-PDK1 (Myc-PDK1 with an N-terminal hexahistidine sequence, from Sf21 insect cells) (protein)
chain: B1 chain
D978A-Region B peptide
  phosphorylation of PKBα at Ser473 (P-473 immunoblot, 32P peptide mapping): far less effective at inducing this alteration in the specificity of PDK1

B3: wild type GST-PDK1 (protein)
chain: B1 chain
[7]
  phosphorylation of PKBα at Ser473: The region B peptide converts the wild type GST-PDK1, but not the kinase dead GST-PDK1, into a kinase which can phosphorylate Ser473 (data not shown)

Source: patent US20070196883
